Patent publication US11491212

B1: FIXa-D104N/K106S/Y155F/K228N/K247N/N249S (protein)
chain 1: not shown
chain 2: not shown
B2: FIXa-D104N/K106S/K247N/N249S/R318Y/R338E/R403E/E410N (protein)
chain 1: not shown
chain 2: not shown
B3: FIXa-K228N/R318Y/R338E/R403E/E410N (protein)
chain 1: not shown
chain 2: not shown
B4: FIXa-K247N/N249S/R318Y/R338E/R403E/E410N (protein)
chain 1: not shown
chain 2: not shown
B5: FIXa-K247N/N249S/R318Y/R338E/E410N (protein)
chain 1: not shown
chain 2: not shown
B6: FIXa-D104N/K106S/I251S/R318Y/R338E/E410N (protein)
chain 1: not shown
chain 2: not shown
B7: FIXa-Y155F/I251S/R318Y/R338E/R403E/E410N (protein)
chain 1: not shown
chain 2: not shown
B8: FIXa-I251S/R318Y/R338E/R403E/E410N (protein)
chain 1: not shown
chain 2: not shown
B9: FIXa-D104N/K106S/I251S/R318Y/R338E/R403E/E410N (protein)
chain 1: not shown
chain 2: not shown
B10: FIXa-D85N/K228N/R318Y/R338E/R403E/E410N (protein)
chain 1: not shown
chain 2: not shown
B11: FIXa-R318Y/R338E/E410S (protein)
chain 1: not shown
chain 2: not shown
B12: FIXa Y155F/K247N/N249S/R318Y/T343R/R403E/E410N (protein)
chain 1: not shown
chain 2: not shown
B13: FIXa K247N/N249S/R318Y/R338E/T343R/E410N (protein)
chain 1: not shown
chain 2: not shown

What follows are proteins tested against Factor X (FX), P00742.
Sequence of Factor X (FX), P00742 (P00742 whole entry, looked up): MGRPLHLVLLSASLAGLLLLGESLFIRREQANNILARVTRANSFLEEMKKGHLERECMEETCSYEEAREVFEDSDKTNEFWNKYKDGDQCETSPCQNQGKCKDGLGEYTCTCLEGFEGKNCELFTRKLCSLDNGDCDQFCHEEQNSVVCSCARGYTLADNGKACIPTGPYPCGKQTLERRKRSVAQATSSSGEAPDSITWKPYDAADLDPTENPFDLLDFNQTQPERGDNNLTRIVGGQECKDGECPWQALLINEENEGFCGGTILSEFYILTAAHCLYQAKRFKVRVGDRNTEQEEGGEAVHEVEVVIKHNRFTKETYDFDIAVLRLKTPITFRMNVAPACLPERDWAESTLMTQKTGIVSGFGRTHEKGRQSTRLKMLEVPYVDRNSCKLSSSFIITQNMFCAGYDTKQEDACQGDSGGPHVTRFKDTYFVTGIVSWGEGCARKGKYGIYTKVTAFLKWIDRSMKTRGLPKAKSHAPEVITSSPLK
With B1 the “% of WT kcat/KM (against Catalyst Biosciences WT FIXa)” value was 137% and the kcat/KM for activation of FX by FIXa in the Xase complex (FVIIIa, PC/PS vesicles, Ca2+), fluorogenic Spectrafluor FXa read-out was 6.3e+07 M⁻¹ s⁻¹.
B2 was tested, and the “% of WT kcat/KM (against Catalyst Biosciences WT FIXa)” value was 192% and the kcat/KM for activation of FX by FIXa in the Xase complex (FVIIIa, PC/PS vesicles, Ca2+), fluorogenic Spectrafluor FXa read-out was 8.8e+07 M⁻¹ s⁻¹.
B3 was tested, and the “% of WT kcat/KM (against Catalyst Biosciences WT FIXa)” value was 339% and the kcat/KM for activation of FX by FIXa in the Xase complex (FVIIIa, PC/PS vesicles, Ca2+), fluorogenic Spectrafluor FXa read-out was 1.6e+08 M⁻¹ s⁻¹.
In the case of B4, the “% of WT kcat/KM (against Catalyst Biosciences WT FIXa)” value is reported as 331% and the kcat/KM for activation of FX by FIXa in the Xase complex (FVIIIa, PC/PS vesicles, Ca2+), fluorogenic Spectrafluor FXa read-out is reported as 1.5e+08 M⁻¹ s⁻¹.
B5 was tested, and the “% of WT kcat/KM (against Catalyst Biosciences WT FIXa)” value was 501% and the kcat/KM for activation of FX by FIXa in the Xase complex (FVIIIa, PC/PS vesicles, Ca2+), fluorogenic Spectrafluor FXa read-out was 2.3e+08 M⁻¹ s⁻¹.
In the case of B6, the “% of WT kcat/KM (against Catalyst Biosciences WT FIXa)” value is reported as 291% and the kcat/KM for activation of FX by FIXa in the Xase complex (FVIIIa, PC/PS vesicles, Ca2+), fluorogenic Spectrafluor FXa read-out is reported as 1.3e+08 M⁻¹ s⁻¹.
With B7 the “% of WT kcat/KM (against Catalyst Biosciences WT FIXa)” value was 363% and the kcat/KM for activation of FX by FIXa in the Xase complex (FVIIIa, PC/PS vesicles, Ca2+), fluorogenic Spectrafluor FXa read-out was 1.7e+08 M⁻¹ s⁻¹.
In the case of B8, the “% of WT kcat/KM (against Catalyst Biosciences WT FIXa)” value is reported as 334% and the kcat/KM for activation of FX by FIXa in the Xase complex (FVIIIa, PC/PS vesicles, Ca2+), fluorogenic Spectrafluor FXa read-out is reported as 1.5e+08 M⁻¹ s⁻¹.
With B9 the “% of WT kcat/KM (against Catalyst Biosciences WT FIXa)” value was 263% and the kcat/KM for activation of FX by FIXa in the Xase complex (FVIIIa, PC/PS vesicles, Ca2+), fluorogenic Spectrafluor FXa read-out was 1.2e+08 M⁻¹ s⁻¹.
B10 was tested, and the “% of WT kcat/KM (against Catalyst Biosciences WT FIXa)” value was 336% and the kcat/KM for activation of FX by FIXa in the Xase complex (FVIIIa, PC/PS vesicles, Ca2+), fluorogenic Spectrafluor FXa read-out was 1.6e+08 M⁻¹ s⁻¹.
For B11, the “% of WT kcat/KM (against Catalyst Biosciences WT FIXa)” value was 708% and the kcat/KM for activation of FX by FIXa in the Xase complex (FVIIIa, PC/PS vesicles, Ca2+), fluorogenic Spectrafluor FXa read-out was 3.3e+08 M⁻¹ s⁻¹.

What follows are proteins tested against Factor X, P00742.
Sequence of Factor X, P00742 (P00742 whole entry, looked up): as above
In the case of B12, the “% of WT kcat/KM” value is reported as 350% and the kcat/KM is reported as 1.6e+08 M⁻¹ s⁻¹.
With B13 the “% of WT kcat/KM” value was 687% and the kcat/KM was 3.2e+08 M⁻¹ s⁻¹.
